Reference: the DeepSol protein solubility set

Test: soluble on expression in E. coli; label from the status in PepcDB or PDB records

Sequence | soluble on expression in E. coli
SHLHPLHKNTTGYDLRHLFIGSEGTLGIITAATLKLFANPLDKATAWVGIPDIESAVRLLTETQAHFAERLCSFELIGRFAAELSSEFSKLPLPTHSEWHILLELTDSLPDSNLDDRLVEFLYKKGFTDSVLAQSEQERIHMWALRENISASQRKLGTSIKHDIAVPIGRVADFVRRCAKDLEQNFKGIQIVCFGHLGDGSLHYNTFLPEILSNEVYRYENDINSTVYRNVLACNGTIAAEHGIGIIKKQWLDKVRTPAEIALMKSIKQHLDPYNIMNPGKLLP | not soluble
MNRRDFLQFGLRGIVVAGLGKGFYNTTSEQVEIVRTSVKIRNLPAALQGLKIGLLTDLHASFVVSSETIRSAGRLLMAEKPDLIVMTGDYISGSTRFLSGSVGQFKKEYLSKCIDALSGLKAPLGIYGVLGNHDFWSGPESVKAICEAFTRQMGMVWLRNSSVEIRRGRGSLHLLGVDDYWEPSCSLAAACKGVDTDGIKILLSHNPDINDEIFLLRERIDLVLSGHTHGGQVVVPFLGQPVMPSKFGQKYRAGLVRDGDRQTYISRGVGCLLAPIRLNCPPEATVLTLTLEHHHHHH | soluble
MSEREHWQRVYESKPSDAVSWFQAEATLSLDLIRRIGAPREAAIIDVGGGASTLVDGLLAEGFGDLTVLDLSDAALRVARNRLGARGEEVRWIAGDITGVDLPEATYDVWHDRAVFHFLTTAEARRAYVRQVMKAVRHGGHVIVATFAADGPTECSGLPVMRYDADELHAEFGSAFQLTEHRDEHHVTPAGRVQHFVYCHCLKRLLEHHHHHH | not soluble
MRAILILLDGLGDRASEILNNKTPLQFAKTPNLDRLAENGMCGLMTTYKEGIPLGTEVAHFLLWGYSLEEFPGRGVIEALGEDIEIEKNAIYLRASLGFVKKDEKGFLVIDRRTKDISREEIEKLVDSLPTCVDGYKFELFYSFDVHFILKIKERNGWISDKISDSDPFYKNRYVMKVKAIRELCKSEVEYSKAKDTARALNKYLLNVYKILQNHKINRKRRKLEKMPANFLLTKWASRYKRVESFKEKWGMNAVILAESSLFKGLAKFLGMDFIKIESFEEGIDLIPELDYDFIHLHTKETDEAAHTKNPLNKVKVIEKIDKLIGNLKLREDDLLIITADHSTPSVGNLIHSGESVPILFYGKNVRVDNVKEFNEISCSNGHLRIRGEELMHLILNYTDRALLYGLRSGDRLRYYIPKDDEIDLLEG | not soluble
MAHHHHHHMMRRVPITVSFDALDTLIQITRGLGYQYRSSYASFLLAHGIDLDATCPNATCEAVQELALKAIRDQVRAERAAWTRSANPKEMPIGGDTDEELRSFWARVLRQTYTCATLYDGAAADVVQRIEELWGDHHNEVRCFEDYVLFDQFSSTKAHSWCPEGLRTLQCLRKWNQVQMSCDESAVRPGLADTKPASDLDVFSPSSAAASPVLFLAAPPFVVSNMDPRIRGVFMQLGAFEAGESGEPPLLSRIISARDTGYAKPSPAGILTGVRDIAASYRAACQSCGACDAGVDVHRHVHVGDADADRVACERAGCHFVQCDPATGVTWGLLQAKLQELEALYGSAPLPH | not soluble
RQGCEARRAHEHLIRLLLEQGKCPEDGWDESTLELFLHELAVMDSNNFLGNCGVGEREGRVASALVARRHYRFIHGIGRSGDISAVQPKAAGSSLLNKITNSLVLNVIKLAGVHSVASCFVVPMATGMSLTLCFLTLRHKRPKAKYIIWPRIDQKSCFKSMVTAGFEPVVIENVLEGDELRTDLKAVEAKIQELGPEHILCLHSTTACFAPRVPDRLEELAVICANYDIPHVVNNAYGLQSSKCMHLIQQGARVGRIDAFVQSLDKNFMVPVGGAIIAGFNEPFIQDISKMYPGRASASPSLDVLITLLSLGCSGYRKLLKERKEMFVYLSTQLKKLAEAHNERLLQTPHNPISLAMTLKTIDGHHDKAVTQLGSMLFTRQVSGARAVPLGNVQTVSGHTFRGFMSHADNYPCAYLNAAAAIGMKMQDVDLFIKRLDKCLNIVRKEQTRA | soluble
MSLKNQWNNILSIGEKVLNGEKITADEALTLSKSNGSDIFLLCSFANKLREKFNGNHVDLCSVINAKSGNCSEDCAFCAQSAHHKANVSCYPLLNEDKILEMAKQREAYGARHCDIATSGLGYTGDEKDFQTILKAFKKMKENTNLKLCACLGTLTEKAMNSLAAVGVERYNHNLETAKSFYKNIVSTHGYDERIKTINYAKNAKMEVCSGMIVGLGETMEQRIEHALLLRDLNVDAVPVNILNPVKGTKLENAKPLSPMEIIKTFAIIRFILPDKIIRYAGGREKNLRSLQPLGFLSGLNGMLIGNYLTTNGQSVNDDFNMLKDLELEYEGHHHHHH | soluble
MSGLHILAFGAHADDVEIGMAGTIAKYTKQGYEVGICDLTEADLSSNGTIELRKEEAKVAARIMGVKTRLNLAMPDRGLYMKEEYIREIVKVIRTYKPKLVFAPYYEDRHPDHANCAKLVEEAIFSAGIRKYMPELSPHRVESFYNYMINGFHKPNFCIDISEYLSIKVEALEAYESQFSTGSDGVKTPLTEGYVETVIAREKMFGKEVGVLYAEGFMSKKPVLLHADLLGGCKLGHHHHHH | soluble
MSLRTLAVETSCDETALAIYDDQKGVLGNVILSQAVVHSPFGGVVPELSAREHTRNILPIFDRLLKESRINLEEIDFISFTLTPGLILSLVVGVAFAKALAYEYRKPLVPVHHLEGHIYSVFLEKKVEYPFLALIISGGHTDLYLVRDFGRYDFLGGTLDDAVGEAYDKVAKMLGLGYPGGPIIDRLAKEGKKLYPLPKPLMEEGNLNFSFSGLKTAILNLLKKEKNVRKEDIAYSFQETVVEILLEKSLWAMKKTGIKRLVVVGGVSANSRLREVFKKASQEYGFELYIPHPSLSTDNALMIAYAGMERFKRGVVAPLDVNPQPNIPLEEFGRIWTEGHHHHHH | soluble
MAHHHHHHMMCLKLNLLDHVFANPFMNAAGVLCSTEEDLRCMTASSSGALVSKSCTSAPRDGNPEPRYMAFPLGSINSMGLPNLGFDFYLKYASDLHDYSKKPLFLSISGLSVEENVAMVRRLAPVAQEKGVLLELNLSCPNVPGKPQVAYDFEAMRTYLQQVSLAYGLPFGVKMPPYFDIAHFDTAAAVLNEFPLVKFVTCVNSVGNGLVIDAESESVVIKPKQGFGGLGGKYILPTALANVNAFYRRCPDKLVFGCGGVYSGEDAFLHILAGASMVQVGTALQEEGPGIFTRLEDELLEIMARKGYRTLEEFRGRVKTIE | not soluble
MAHHHHHHMRPVTRSPLLVAAVVVAATLCLNGDNAILSLSSGVRLAHANGPITKDQCFILNPQPTVTSCNAYLPPIVDLYGSLPYDTTPDYADCVKERCLCTGAATSTAIKTSGFFCNSSGWMESGYTTCNVLVDCFSKFWRCINRALYMRYLTDRENLDSGEVDLITDLISHGSHPGEPFDITDTFRSCRLMMCAAANSRQNCGLVTCLPNYTQCDEYIRPPPLPYTHPLCTQGCRAALLMMALTIAAVSFSACCFCCCPAQVRISEPVLMEEVPAHKVELSSMRSEVEAQARRHRTNDPYTQ | not soluble
LYRHFAHRPDDLYRLEWREYETLLARIFQSQGFDVELGPGRGDEGVDIRLIQRDPIGDIVTLVQAKKYGAGNKIDQTQVAALYGIQQSEDANFSMFVTTSAYAPVAKRFSAREKV | not soluble
GPGSMDDKQAFFVRCIDGKTFKMVIRGDLGKLTVGKIRRYLKSYGVQDGMQLLFNGLSLADEQVGSDFGLCNGATLHLGPPSFSEPAVPQRTHGQGFSDEAAGSRTGDPTDTPHSSLSGDSRERNSKADSTHRDPCGGLSHADPARGTATYSGGRYNVDKGIPVTATSATKTNIDRIPSADLTSHSGFPVALEVENQQLREQVELLRREVADLRQKNKAPRATVLRQDLTSIEVLQSAKSNLQELAEELGVPLQFDTNFTCVVGDDESHTVLVTFDCVTERLYIYSTLLTQIPHDGEVRAKLYELLLEGSLLSREVCGGGIGISPQNGLVLLSTTIPLRHCNSSALKDIMPVFVETVARWRSLINELLN | soluble
MTTAPAKISEYTVSTPDRTVASVRADGIVAATPLGSHGYAADAGGPHLAPGVSAAAVVPVSPFRVDRTNWVVCPPVSVTVARDETTVELHADGHAHGRVPVDSPVTLSWGTPLPIAVVSHAGTHGD | soluble
AHHHHHHGSPTWEELYKNAIEKAIKSVPKVKGVLLGYNTNIDAIKYLDSKDLEERIIKAGKEEVIKYSEELPDKINTVSQLLGSILWSIRRGKAAELFVESCPVRFYMKRWGWNELRMGGQAGIMANLLGGVYGVPVIVHVPQLSRLQANLFLDGPIYVPTLENGEVKLIHPKEFSGDEENCIHYIYEFPRGFRVFEFEAPRENRFIGSADDYNTTLFIREEFRESFSEVIKNVQLAILSGLQALTKENYKEPFEIVKSNLEVLNEREIPVHLEFAFTPDEKVREEILNVLGMFYSVGLNEVELASIMEILGEKKLAKELLAHDPVDPIAVTEAMLKLAKKTGVKRIHFHTYGYYLALTEYKGEHVRDALLFAALAAAAKAMKGNITSLEEIREATSVPVNEKATQVEEKLRAEYGIKEGIGEVEGYQIAFIPTKIVAKPKSTVGIGDTISSSAFIGEFSFTL | not soluble
MNINRFVLAAPGSGSGKTTVAALLCLALRARGLSVQPFKLGPDYLDPTHLTRAAGRETRNLDSFLLAPERLQTLFARAAAQAEVCVIEGVMGLYDGRDPGSDEHSTAALARLLGARVVLVIDAGGMARTVAAVAAGLRDFGEGVNVAGVILNRVGSVRHAELCAEALTQVGLACLGFLLQDDALRLPSRHLGLLSAQQASWDEAAALAAARYLDLDALLNVTRAPDLSSSSSMSPPPSTRIAYAFDSAFHFYYPDALDELRSCGAELVPFSPLEDAGVPEDVGGLLLGGGYPEAHAAELAANERMRRSVRAFAASGRPVVGECGGLMYLSETLEDENGVTHEMCGVVPYRTRMARRLSLGYRDALSLADSPLLPAGTAIRGHEFHFSTLTHEPTHPAYRWRTHDGQEVAEGYARGNVLASYLHLHYGGFPAVAARLVERCQLEHHHHHH | not soluble
MTTTIEVGMLGLGTVGSGVVERLTRSAAKIEQTQGIRLHLAAVAVNHLNAPRTVQLPIGTRLTDSLTNVVCDRKIQLVIEVMGTVATAKKAIVAALNQGKAVVTANKDLIATAGPELAALAKKQGCDLFYEASVAGGIPILRTLTDSYVTDNVQAVSGIINGTANYMLSAMATGQSYEQALATAQATGYAEADPTNDVAGIDAAYKLMILSRFAFGQELSLPQIAPTGITHLSASVCRLAAENGWQIKLLAQIQRHGSGLYCRVAPVAVPVDQPLSQINGVQNAVAVQSEAIGTSLYTGPGAGSTATANSVLNDVLVAAKHLINGYRMIRNQKRSVSLTVTRFDQLPQTYLGIGPVAPEAVKYYANEADFSVKTIADDCYQITGLSAVKRKKLRANLPLTLIPIAGTTDWKQVTENSITSPINVAILEHHHHHH | soluble
GPHMVIRAEKMEAVTHLAASISHEIRNPLTAARGFIQLIEEQPLAADKRRQYARIAIEELDRAEAIITDYLTFAKPAPETPEKLNVKLEIERVIDILRPLANMSCVDIQATLAPFSVIGEREKFRQCLLNVMKNAIEAMPNGGTLQVYVSIDNGRVLIRIADTGVGMTKEQLERLGEPYFTTKGVKGTGLGMMVVYRIIESMNGTIRIESEIHKGTTVSIYLPLASSPSSSTISDKEKQLFAAL | soluble
